Measurements: IntAct's records for PubMed 22056771

B1: Ubiquitin-like modifier-activating enzyme ATG7 (Saccharomyces cerevisiae), P38862 (parent)
chain: MSSERVLSYAPAFKSFLDTSFFQELSRLKLDVLKLDSTCQPLTVNLDLHNIPKSADQVPLFLTNRSFEKHNNKRTNEVPLQGSIFNFNVLDEFKNLDKQLFLHQRALECWEDGIKDINKCVSFVIISFADLKKYRFYYWLGVPCFQRPSSTVLHVRPEPSLKGLFSKCQKWFDVNYSKWVCILDADDEIVNYDKCIIRKTKVLAIRDTSTMENVPSALTKNFLSVLQYDVPDLIDFKLLIIRQNEGSFALNATFASIDPQSSSSNPDMKVSGWERNVQGKLAPRVVDLSSLLDPLKIADQSVDLNLKLMKWRILPDLNLDIIKNTKVLLLGAGTLGCYVSRALIAWGVRKITFVDNGTVSYSNPVRQALYNFEDCGKPKAELAAASLKRIFPLMDATGVKLSIPMIGHKLVNEEAQHKDFDRLRALIKEHDIIFLLVDSRESRWLPSLLSNIENKTVINAALGFDSYLVMRHGNRDEQSSKQLGCYFCHDVVAPTDSLTDRTLDQMCTVTRPGVAMMASSLAVELMTSLLQTKYSGSETTVLGDIPHQIRGFLHNFSILKLETPAYEHCPACSPKVIEAFTDLGWEFVKKALEHPLYLEEISGLSVIKQEVERLGNDVFEWEDDESDEIA
partner: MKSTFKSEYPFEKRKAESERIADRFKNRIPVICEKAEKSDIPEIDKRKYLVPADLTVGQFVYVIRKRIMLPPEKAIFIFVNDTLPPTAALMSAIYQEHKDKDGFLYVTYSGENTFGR
B2: Autophagy-related protein 8 (Saccharomyces cerevisiae), P38182 (parent)
chain: B1 partner
partner: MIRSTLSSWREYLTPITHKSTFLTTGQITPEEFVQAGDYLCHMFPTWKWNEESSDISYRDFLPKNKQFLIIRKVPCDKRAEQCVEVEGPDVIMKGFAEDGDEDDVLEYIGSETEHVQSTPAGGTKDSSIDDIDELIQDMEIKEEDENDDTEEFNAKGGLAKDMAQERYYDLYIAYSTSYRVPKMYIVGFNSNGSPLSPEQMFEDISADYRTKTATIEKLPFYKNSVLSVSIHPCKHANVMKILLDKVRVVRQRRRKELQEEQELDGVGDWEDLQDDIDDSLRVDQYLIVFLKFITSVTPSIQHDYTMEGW
B3: Autophagy-related protein 8 (Saccharomyces cerevisiae), P38182 (parent)
chain: B1 partner
partner: B1 chain

Variants of: B1
Settings: with atg8_yeast ATG8, P38182

effect of a mutation on the interaction | Variant
decreasing interaction strength | E612R
decreasing interaction strength | E612A
decreasing interaction strength | E612Q

Variants of: B2
Settings: with atg3_yeast ATG3, P40344

effect of a mutation on the interaction | Variant
disrupting interaction | MKSTFKSEYPFEKRKAESERIADRFKNRIPVICEKAEKSDIPEIDKRKYLVPADLTVGQFVKVIRKRIMLPPEKAIFIFVNDTLPPTAALMSAIYQEHKDKDGFLYVTYSGENTFGR

Variants of: B3
Settings: with atg7_yeast ATG7, P38862

effect of a mutation on the interaction | Variant
disrupting interaction | MKSTFKSEYPFEKRKAESERIADRFKNRIPVICEKAEKSDIPEIDKRKYLVPADLTVGQFVKVIRKRIMLPPEKAIFIFVNDTLPPTAALMSAIYQEHKDKDGFLYVTYSGENTFGR

Variants of: B3
Settings: with atg7_yeast ATG7, P38862
Remark: another data set of the same source

Variant | effect of a mutation on the interaction
MKSTFKSEYPFEKRKAESERIADRFKNRIPVICEKAEKSDIPEIDKRKYLVPADLTVGQFVKVIRKRIMLPPEKAIFIFVNDTLPPTAALMSAIYQEHKDKDGFLYVTYSGENTFGR | disrupting interaction strength
MKSTFKSEYPFEKRKAESERIADRFKNRIPVICEKAEKSDIPEIDKRKYLVPADLTVGQFVYVIRERIMLPPEKAIFIFVNDTLPPTAALMSAIYQEHKDKDGFLYVTYSGENTFGR | decreasing interaction strength
MKSTFKSEYPFEKRKAESERIADRFKNRIPVICEKAEKSDIPEIDKRKYLVPADLTVGQFVYVIRARIMLPPEKAIFIFVNDTLPPTAALMSAIYQEHKDKDGFLYVTYSGENTFGR | decreasing interaction strength

Next, values leading:

effect of a mutation on the interaction | Variant
disrupting interaction strength | MKSTFKSEYPFEKRKAESERIADRFKNRIPVICEKAEKSDIPEIDKRKYLVPADLTVGQFVAVIRKRIMLPPEKAIFIFVNDTLPPTAALMSAIYQEHKDKDGFLYVTYSGENTFGR
disrupting interaction | MKSTFKSEYPFEKRKAESERIADRFKNRIPVICEKAEKSDIPEIDKRKYLVPADLTVGQFVAVIRARIMLPPEKAIFIFVNDTLPPTAALMSAIYQEHKDKDGFLYVTYSGENTFGR
